Numbering of substitutions follows the chain as printed. Positions of bridges follow the written chain, without caps; N, C: chain ends. No end group written: not given here. *: point of attachment. 125I = [125I]*
Key:
Assay in all cases: 125I-OxA binding on CHO-S cells expressing the OX1R mutant
[1] = molecular target: T1, OX1R Y348A (human, UniProt O43613 1-425)
T1 construct: site-directed mutant (TM7) stably expressed in CHO-S cells; not shown: YFP from vector pEYFP-N2 fused at the C-terminus
T1 chain: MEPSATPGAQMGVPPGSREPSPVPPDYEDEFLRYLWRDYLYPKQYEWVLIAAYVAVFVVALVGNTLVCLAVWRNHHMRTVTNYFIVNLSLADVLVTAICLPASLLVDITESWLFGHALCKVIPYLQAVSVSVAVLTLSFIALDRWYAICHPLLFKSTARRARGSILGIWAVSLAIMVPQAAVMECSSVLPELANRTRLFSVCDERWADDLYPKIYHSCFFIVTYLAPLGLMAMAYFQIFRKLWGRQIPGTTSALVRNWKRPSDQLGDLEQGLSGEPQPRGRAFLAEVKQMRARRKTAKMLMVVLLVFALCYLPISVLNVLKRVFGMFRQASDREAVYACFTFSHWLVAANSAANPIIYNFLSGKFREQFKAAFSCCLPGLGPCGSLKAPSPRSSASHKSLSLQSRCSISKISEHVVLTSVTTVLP
Description: (§1) CHO—S cells expressing recombinant native or mutated OX1R were grown as previously described (El Firar et al., 2009) and maintained at 37° C. in a humidified 5% CO₂/air incubator. ¹²⁵I-orexia-A (74 TBq/mmol) was prepared as previously described (El Firar et al., 2009). […] Free peptides were removed by 2 cell washing cycles with PBS. […] Data were analyzed using the GraphPad software (http://www.graphpad.com).
(§2) All residues of OX1R fulfilling this condition were mutated to alanine by site-directed mutagenesis (Table II).

[2] = molecular target: T2, OX1R K321A (human, UniProt O43613 1-425)
T2 construct: site-directed mutant (TM6) stably expressed in CHO-S cells; not shown: YFP from vector pEYFP-N2 fused at the C-terminus
T2 chain: T1 chain with K321A, A348Y
Description: as §1, §2

[3] = molecular target: T3, OX1R I98A (human, UniProt O43613 1-425)
T3 construct: site-directed mutant (TM2) stably expressed in CHO-S cells; not shown: YFP from vector pEYFP-N2 fused at the C-terminus
T3 chain: T1 chain with I98A, A348Y
Description: as §1, §2

[4] = molecular target: T4, OX1R P101A (human, UniProt O43613 1-425)
T4 construct: site-directed mutant (TM2) stably expressed in CHO-S cells; not shown: YFP from vector pEYFP-N2 fused at the C-terminus
T4 chain: T1 chain with P101A, A348Y
Description: as §1, §2

binding result [1]: binds
binding result [2]: binds
binding result [3]: binds
binding result [4]: binds
Binder: QPLPDCCRQKTCSCRLY(125I)ELLHGAGNHAAGILTL (peptide, UniProt O43612 34-66, looked up, disulfide 6-12, 7-14; not fully specified (residue 1, C-terminus), mature; also called OxA) [125I-orexin-A]
